Laboratory results reported in PMC2805770.

Settings: phosphorylation at S656

## synapsin-I: S656A
  localisation_or_trafficking: changes
